Reference: IntAct's records for PubMed 26524528

B1: Lamin-B1 (Homo sapiens), P20700 (parent)
chain: MATATPVPPRMGSRAGGPTTPLSPTRLSRLQEKEELRELNDRLAVYIDKVRSLETENSALQLQVTEREEVRGRELTGLKALYETELADARRALDDTARERAKLQIELGKCKAEHDQLLLNYAKKESDLNGAQIKLREYEAALNSKDAALATALGDKKSLEGDLEDLKDQIAQLEASLAAAKKQLADETLLKVDLENRCQSLTEDLEFRKSMYEEEINETRRKHETRLVEVDSGRQIEYEYKLAQALHEMREQHDAQVRLYKEELEQTYHAKLENARLSSEMNTSTVNSAREELMESRMRIESLSSQLSNLQKESRACLERIQELEDLLAKEKDNSRRMLTDKEREMAEIRDQMQQQLNDYEQLLDVKLALDMEISAYRKLLEGEEERLKLSPSPSSRVTVSRASSSRSVRTTRGKRKRVDVEESEASSSVSISHSASATGNVCIEEIDVDGKFIRLKNTSEQDQPMGGWEMIRKIGDTSVSYKYTSRYVLKAGQTVTIWAANAGVTASPPTDLIWKNQNSWGTGEDVKVILKNSQGEEVAQRSTVFKTTIPEEEEEEEEAAGVVVEEELFHQQGTPRASNRSCAIM

Variants of: B1
Details: with mlp3b_human MAP1LC3B

| effect of a mutation on the interaction | Variant |
| --- | --- |
| decreasing interaction strength | S396A;R397A |
| decreasing interaction strength | V398A |
| decreasing interaction strength | S395A;S396A |
| disrupting interaction strength | S393A;S395A;S396A;R397A;V398A |

Second part, the variant before the results:

| Variant | effect of a mutation on the interaction |
| --- | --- |
| S393A;S395A | decreasing interaction strength |
| S393A;S395A;S396A;R397A | decreasing interaction strength |
